Experimental data taken from patent publication US20240425603A1 (Janssen / Centocor, published 2024).

T1: ISLR (BC022478) (human, UniProt O14498 19-428)
T1 construct: whole, on cells; also called Immunoglobulin superfamily containing leucine-rich repeat protein
T1 sequence (looked up): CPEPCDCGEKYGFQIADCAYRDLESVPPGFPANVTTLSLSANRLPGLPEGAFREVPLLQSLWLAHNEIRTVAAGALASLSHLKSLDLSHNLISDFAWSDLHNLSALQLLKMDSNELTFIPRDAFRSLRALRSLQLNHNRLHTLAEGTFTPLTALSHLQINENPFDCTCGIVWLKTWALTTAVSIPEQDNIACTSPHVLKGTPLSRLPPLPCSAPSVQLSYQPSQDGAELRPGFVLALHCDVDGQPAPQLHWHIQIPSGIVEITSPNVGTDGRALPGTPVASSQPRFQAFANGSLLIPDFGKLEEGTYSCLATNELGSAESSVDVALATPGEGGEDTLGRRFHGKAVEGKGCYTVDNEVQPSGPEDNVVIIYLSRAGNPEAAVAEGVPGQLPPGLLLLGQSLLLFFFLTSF

T2: NECTIN1 Isoform Alpha (NM_203285.1) (human, UniProt Q15223-2 31-458)
T2 construct: whole, on cells
T2 sequence (looked up): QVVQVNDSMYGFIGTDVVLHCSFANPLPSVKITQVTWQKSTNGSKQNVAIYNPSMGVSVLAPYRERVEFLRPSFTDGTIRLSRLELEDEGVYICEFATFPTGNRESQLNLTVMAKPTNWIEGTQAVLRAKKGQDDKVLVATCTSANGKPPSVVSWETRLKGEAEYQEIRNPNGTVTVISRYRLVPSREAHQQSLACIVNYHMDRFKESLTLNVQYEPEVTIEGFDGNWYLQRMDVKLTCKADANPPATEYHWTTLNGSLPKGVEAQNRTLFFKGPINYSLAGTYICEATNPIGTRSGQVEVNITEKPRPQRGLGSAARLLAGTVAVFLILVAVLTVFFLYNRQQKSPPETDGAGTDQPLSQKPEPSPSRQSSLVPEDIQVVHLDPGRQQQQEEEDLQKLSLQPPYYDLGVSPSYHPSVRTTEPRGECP

T3: murine VEGFR1, over-expressed on cells (mouse, UniProt P35969 23-1333)
T3 construct: whole, on cells; also called mouse VEGFR1
T3 sequence (looked up): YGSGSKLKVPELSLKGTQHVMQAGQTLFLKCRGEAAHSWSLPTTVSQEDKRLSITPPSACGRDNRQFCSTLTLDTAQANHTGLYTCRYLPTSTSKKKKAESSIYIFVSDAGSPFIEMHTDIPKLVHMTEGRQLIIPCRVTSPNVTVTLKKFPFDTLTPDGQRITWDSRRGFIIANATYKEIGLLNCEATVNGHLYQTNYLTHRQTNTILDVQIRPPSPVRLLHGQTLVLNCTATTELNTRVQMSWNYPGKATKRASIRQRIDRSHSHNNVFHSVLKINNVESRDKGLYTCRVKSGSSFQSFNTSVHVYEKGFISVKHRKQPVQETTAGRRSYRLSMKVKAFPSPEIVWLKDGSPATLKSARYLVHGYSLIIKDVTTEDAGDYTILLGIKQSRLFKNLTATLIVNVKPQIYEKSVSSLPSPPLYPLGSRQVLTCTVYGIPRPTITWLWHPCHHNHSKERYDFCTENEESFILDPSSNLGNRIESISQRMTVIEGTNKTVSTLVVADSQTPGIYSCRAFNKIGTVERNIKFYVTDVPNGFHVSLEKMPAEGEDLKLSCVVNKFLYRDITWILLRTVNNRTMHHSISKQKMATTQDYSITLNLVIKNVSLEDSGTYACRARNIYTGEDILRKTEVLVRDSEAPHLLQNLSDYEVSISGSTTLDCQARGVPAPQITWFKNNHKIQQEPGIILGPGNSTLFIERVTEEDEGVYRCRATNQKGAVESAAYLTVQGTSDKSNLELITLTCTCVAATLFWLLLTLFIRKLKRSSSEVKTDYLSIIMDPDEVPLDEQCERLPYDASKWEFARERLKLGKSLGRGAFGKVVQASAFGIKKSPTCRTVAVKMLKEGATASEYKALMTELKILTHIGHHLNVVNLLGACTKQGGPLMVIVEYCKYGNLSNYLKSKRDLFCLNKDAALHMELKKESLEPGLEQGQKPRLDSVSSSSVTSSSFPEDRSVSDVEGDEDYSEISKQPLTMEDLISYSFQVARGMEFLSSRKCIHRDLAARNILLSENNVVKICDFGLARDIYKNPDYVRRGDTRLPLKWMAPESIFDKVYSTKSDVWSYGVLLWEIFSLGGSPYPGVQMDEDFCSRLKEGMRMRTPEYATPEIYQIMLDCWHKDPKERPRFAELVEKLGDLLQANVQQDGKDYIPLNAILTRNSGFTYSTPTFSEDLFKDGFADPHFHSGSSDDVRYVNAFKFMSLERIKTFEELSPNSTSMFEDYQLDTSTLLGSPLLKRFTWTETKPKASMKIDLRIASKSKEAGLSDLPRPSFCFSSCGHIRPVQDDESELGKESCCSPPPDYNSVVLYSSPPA

B1: VGFB78 (antibody, human IgG1, lambda, L234A L235A, V domains shown)
VH: EVQLLESGGGLVQPGGSLRLSCAASSFTFYNYDMTWVRQAPGKGLEWVAGIGTSGTDMYYADSVKGRFTISRDNSKNTLYLQMNSLRAEDTAIYYCAKDYYYYGMDVWGLGTTVTVSS
VL: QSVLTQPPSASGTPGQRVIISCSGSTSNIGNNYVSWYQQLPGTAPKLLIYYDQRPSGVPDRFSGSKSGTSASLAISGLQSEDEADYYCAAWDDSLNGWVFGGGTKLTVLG
notes: human IgG1 (L234A/L235A/D265S)
B2: VGFB71 (antibody, human IgG1, lambda, L234A L235A, V domains shown)
VH: EVQLLESGGGLVQPGGSLRLSCEASGFIFRDYNMNWVRQAPGKGLEWVSIITNDGSSTAYSDSVKGRFTISRDNSKNSLYLQMNSLRAEDTAIYYCVKVYYGMDDWGQGTTVTVSS
VL: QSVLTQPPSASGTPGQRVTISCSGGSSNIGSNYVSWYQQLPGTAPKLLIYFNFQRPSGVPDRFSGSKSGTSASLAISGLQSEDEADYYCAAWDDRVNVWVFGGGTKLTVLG
notes: as for B1

Columns and labels:
ISLR (BC022478) = molecular target: T1, ISLR (BC022478); assay: Retrogenix cell microarray, fixed HEK293 cells, 2 ug/mL antibody
Protocol: (§1) This human cell microarray methodology has been previously described in the literature (Freeth, J. et al, SLAS Discovery, 25 (2), 223-230, 2020). Primary screening was performed on slides arrayed with fixed HEK293 cells with each spot of HEK293 cells expressing either a unique protein from the cell surface-ome, a cell surface tethered human secreted protein, or a heterodimeric human cell surface receptor. In total, 5,528 unique gene products were represented in this primary screen (4,103 human plasma membrane proteins (+some untethered secreted proteins)+1,425 cell surface tethered human secreted proteins). Briefly, slides containing fixed transfected HEK293 cells were overlaid with a solution of test antibody (2 μg/mL), incubated, and washed. Binding was assessed using AlexaFluor647-conjugated anti-human IgG Fc detection antibody and fluorescence quantitation on ImageQuant. […] Located in the ER, off-target binding to CRELD2 was of less concern. Nectin-1, FGFR2, and ISLR, on the other hand, display broad tissue expression profiles. Cross-reactivity to these proteins is undesirable because binding to these targets might have a significant impact on pharmacokinetic and biodistribution profiles of the molecules. This off-target binding was subsequently confirmed by flow cytometry on live HEK293 cells transiently expressing these ‘off-target’ proteins identified in the primary screen.

[1] = molecular target: T2, NECTIN1 Isoform Alpha (NM_203285.1); assay: as above
Protocol: as §1

[2] = molecular target: T3, murine VEGFR1, over-expressed on cells; assay: FACS cell binding (MFI) on HEK cells over-expressing murine VEGFR1; expanded clone supernatant per paragraph 492, concentration not given
Method in brief: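 Binding was assessed by flow cytometry as mean fluorescence intensity, using culture supernatants of chicken-derived antibody clones expressed as scFv-Fc (human IgG1). The clones were produced by transient transfection and expanded to 6-well plates (2 mL). Receptor over-expressing cells were HEK cells for mouse VEGFR1 and human VEGFR2, and K562 cells for human VEGFR3.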

| Binder | binding result (ISLR (BC022478)) | binding result [1] | binding result [2] |
| --- | --- | --- | --- |
| B1 | binds | – | – |
| B2 | – | binds | binds |
